In patent publication US20240067748A1 (NONA BIOSCIENCES SUZHOU, published 2024):
Substitutions are numbered along the chain they refer to.

Tests used:
human Trop2 on cells = biological target: T1, human Trop2 on cells (human, UniProt P09758 27-323); assay: cell-based or functional assay
T1 sequence (looked up): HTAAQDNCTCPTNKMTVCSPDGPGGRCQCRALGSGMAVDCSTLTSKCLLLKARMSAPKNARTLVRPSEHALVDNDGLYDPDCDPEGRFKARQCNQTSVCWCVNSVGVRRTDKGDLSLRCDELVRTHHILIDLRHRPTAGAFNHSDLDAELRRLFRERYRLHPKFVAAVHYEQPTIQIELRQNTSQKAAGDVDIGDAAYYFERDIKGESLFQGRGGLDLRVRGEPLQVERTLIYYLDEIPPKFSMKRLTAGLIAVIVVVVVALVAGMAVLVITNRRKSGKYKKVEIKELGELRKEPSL

[1] = biological target: T2, human TROP2 protein (Sino Biological, #10428-H08H) (human, UniProt P09758 27-274); assay: BLI, Octet RED96, AHC sensor
T2 construct: bought protein; also called human Trop2 protein antigen (His tag); not shown: His tag
T2 sequence (looked up): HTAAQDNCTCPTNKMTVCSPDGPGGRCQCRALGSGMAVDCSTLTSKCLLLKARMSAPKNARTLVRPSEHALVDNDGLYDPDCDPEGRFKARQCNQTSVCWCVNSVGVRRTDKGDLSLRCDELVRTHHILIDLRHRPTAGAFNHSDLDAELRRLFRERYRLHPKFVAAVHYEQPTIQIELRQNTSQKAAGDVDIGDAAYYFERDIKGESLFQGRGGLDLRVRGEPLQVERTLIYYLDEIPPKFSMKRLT
Procedure, shortened: (§1)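 First, 200 nM human or monkey Trop2 in PBS (pH 7.4, 0.1% BSA, 0.02% Tween 20) is captured on the sensor. Next, 40 nM antibody binds for 3 min at 30° C.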

[2] = biological target: T3, monkey Trop2 on CHO-K1 cells (monkey, UniProt A0A2K5UE71 27-323); assay: flow cytometry on CHO-K1/monkey Trop2 cells
T3 construct: also called CHO-K1/monkey Trop2
T3 sequence: T1 sequence (looked up) with M36V, K46E, S67N, I204V, M266V, T272S
Description: CHO-K1/monkey Trop2 cells (Chempartner, Shanghai, China) and CHO-K1 blast cells were each digested with 3 mL of TrypLE, and the digestion was stopped with 7 mL of the corresponding medium. […] The cell solution was centrifuged, and the cells were washed once with PBS+0.5% BSA. […] The cells were washed once with PBS+0.5% BSA. The cells were incubated at 4° C. for 1 h in the dark with 100 μL of Alexa Fluor 488 goat anti-human IgG (Life technologies, #A-11013) diluted at 1:1000, and washed twice with PBS+0.5% BSA. The cells were resuspended in 200 μL of PBS+0.5% BSA. The suspension was centrifuged at 4° C. for 5 min at 2000 rpm and tested using a FACS verse flow cytometer or NovoCyte flow cytometer (ACEA Biosciences). All procedures were performed on ice.

[3] = biological target: T2, human TROP2 protein (Sino Biological, …); assay: BLI epitope binning (Octet), biotinylated human Trop2 on SA sensor; row = primary antibody; competitor (secondary antibody, column): hRS7
Description: (§2) The biotinylated mixture after the incubation was washed three times with PBS and a Zeba centrifugal desalting column (Thermo Fisher, #89882) to remove excess biotin. The biotinylated Trop2 protein was captured by an SA sensor (Pall ForteBio, #18-5019) with the loading baseline set at 0.3 nm. The sensor was immersed in a well of assay buffer containing 50 nM primary antibody for 300 s. […] The binding assay was performed by comparing the binding of the secondary antibody to Trop2 in the presence of the primary antibody to the blocking of the primary antibody itself.

[4] = biological target: T2, human TROP2 protein (Sino Biological, …); assay: BLI epitope binning (Octet), biotinylated human Trop2 on SA sensor; row = primary antibody; competitor (secondary antibody, column): PR001142
Description: as §2

[5] = biological target: T2, human TROP2 protein (Sino Biological, …); assay: BLI epitope binning (Octet), biotinylated human Trop2 on SA sensor; row = primary antibody; competitor (secondary antibody, column): PR001166
Description: as §2

[6] = biological target: T4, monkey Trop2 protein (Sino Biological, #90893-C08H) (monkey, UniProt A0A2K5UE71 27-274); assay: BLI, Octet RED96; ratio against KD for human Trop2 protein
T4 construct: bought protein; also called monkey Trop2 protein antigen (His tag)
T4 sequence: T2 sequence (looked up) with M36V, K46E, S67N, I204V
Procedure, shortened: as §1

B1: comparative example 2 antibody Tab (hRS7) (antibody, human IgG1, kappa, V domains shown)
VH: QVQLQQSGSELKKPGASVKVSCKASGYTFTNYGMNWVKQAPGQGLKWMGWINTYTGEPTYTDDFKGRFAFSLDTSVSTAYLQISSLKADDTAVYFCARGGFGSSYWYFDVWGQGSLVTVSS
VL: DIQLTQSPSSLSASVGDRVSITCKASQDVSIAVAWYQQKPGKAPKLLIYSASYRYTGVPDRFSGSGSGTDFTLTISSLQPEDFAVYYCQQHYITPLTFGAGTKVEIKR
notes: prepared on the basis of sacituzumab govitecan (ChemPartner, #T07-001); naked antibody
B1 was tested, and the “ADCP (Donor A1925144#) EC50(nM), BxPC-3 + macrophages” value (human Trop2 on cells) was 0.125 nM, the “ADCP (Donor A1925144#) Maximum phagocytosis %” value (human Trop2 on cells) was 14.8% and the “ADCP (Donor A1925144#) Minimum phagocytosis %” value (human Trop2 on cells) was 1.72%. The “ADCP (Donor A19143143#) EC50(nM), BxPC-3 + macrophages” value (human Trop2 on cells) was 0.208 nM, the “ADCP (Donor A19143143#) Maximum phagocytosis %” value (human Trop2 on cells) was 44.8% and the “ADCP (Donor A19143143#) Minimum phagocytosis %” value (human Trop2 on cells) was 1.04%. It also gave a Kd [1] of 0.199 nM, a Response [1] of 0.349 and an EC50 [2] of 2.13 nM. For the same binder, the “Maximum MFI value” [2] was 53100 MFI, the “Inhibition rate (%)” value [3] was 96.5% and the “Inhibition rate (%)” value [4] was 93.3%. The “Inhibition rate (%)” value [5] was 7.34%.

B2: PR001142 (antibody, human IgG1, kappa, V domains shown)
VH: QVQLQESGPGLVKPSGTLSLTCAVSGDSISSNNWWSWVRQPPGKGLEWIGEIYPGGNPNYNPSLKSRVTISVDKSKNQFSLKLNSVTAADTAVYYCARGSGVISYFDYWGQGTLVTVSS
VL: DIQMTQSPSTLSASVGDRVTITCRASQSIGHWLAWYQQKPGKAPKLLIYKASSLESGVPSRFRGSGSGTEFTLTISSLQPDDFATYYCQQYSSYSPITFGQGSRLEIKR
notes: fully human IgG1/kappa; also called antibody No. (9)
With B2 the “ADCP (Donor A1925144#) EC50(nM), BxPC-3 + macrophages” value (human Trop2 on cells) was 0.0362 nM, the “ADCP (Donor A1925144#) Maximum phagocytosis %” value (human Trop2 on cells) was 12% and the “ADCP (Donor A1925144#) Minimum phagocytosis %” value (human Trop2 on cells) was 0.861%. The “ADCP (Donor A19143143#) EC50(nM), BxPC-3 + macrophages” value (human Trop2 on cells) was 0.199 nM, the “ADCP (Donor A19143143#) Maximum phagocytosis %” value (human Trop2 on cells) was 36.4% and the “ADCP (Donor A19143143#) Minimum phagocytosis %” value (human Trop2 on cells) was 1.75%. It also gave a Kd [1] of 0.323 nM, a Response [1] of 0.39 and a koff [1] of 8.78e-05 s⁻¹. For the same binder, the kon [1] was 272000 M⁻¹ s⁻¹, the EC50 [2] was 2.1 nM and the “Maximum MFI value” [2] was 51200 MFI. The “KD (monkey)/KD (human)” value [6] was 0.81, the “Inhibition rate (%)” value [3] was 97.8% and the “Inhibition rate (%)” value [4] was 101%. For the same binder, the “Inhibition rate (%)” value [5] was 85.5%.
